Assay results published in patent US20240082342A1, “PEPTIDE THERAPEUTICS FOR INCREASING LUNG CELL VIABILITY” (BOARD OF REGENTS, THE UNIVERSITY OF TEXAS SYSTEM, priority 2018, published 2024).

Legend:
[1] = system: LECs; conditions: in vitro and in vivo; cited from earlier work
[2] = system: ATII cells and BALF of IL-17A treated mice; test: IL-17A-induced lung injury in mice; assay type: in vivo, mouse; conditions: WT mice exposed to recombinant IL-17A, 24 h
Protocol: IL-17A is induced in passive tobacco smoke (PTS) exposed lung injury. […] Further, IL-17A induced ^p15Sp53 was inhibited following treatment of mice CSP7 when compared with those treated with saline and control peptide. To further test whether IL-17A induced ^p15Sp53 alters PAI-1 expression and ATII apoptosis, ATII cells of IL-17A treated mice for PAI-1 and apoptotic markers were analyzed. IL-17A induced the expression of PAI-1 and cl.Cas-3, and inhibited Sirt-1 expression in ATII cells. […] In addition, CSP7 treatment found to inhibit serine phosphorylation of p53 by neutralizing elevated IL-17A due to PTS exposure.
To test the importance of miR-34a mediated deacetylation of p53 IL-17A or PTS induced lung injury, miR34a conditional knockout mice were treated with tamoxifen. miR34a conditional knockout mice treated with IL-17A (3 μg/mice) was administered with CSP7 and CP a day later. ATII cells isolated from these mice were screened for PAI-1, Sirt-1 and apoptotic markers. […] Further, CSP7 treatment had little effect in miR-34a^cKo mice since these mice resist IL-17A or PTS injury.

[3] = system: A2ECs treated with IL-17A; test: A2ECs exposed to IL-17A in vitro; assay type: cell-based, mouse
Protocol: FIGS. 49A-49B show the role of IL-17A in PTS-induced p53, PAI-1 expression, and apoptosis in A2ECs. (A) IL-17A^−/− mice resist PTS-induced p53 expression and apoptosis in A2ECs. Mice were kept in ambient AIR or exposed to 20 weeks of PTS. A2ECs isolated from WT and IL-17A^−/− mice in AIR or exposed to PTS were analyzed for acetylated/total p53, Sirt1 and activated caspase-3 to assess apoptosis by Western blotting. (B) CSP inhibits IL-17A-induced p53 and PAI-1 expression and apoptosis in A2ECs in vitro. A2ECs isolated from WT mice were treated with PBS or IL-17A (100 ng/ml) in the presence or absence of CSP or control peptide, CP for 24 h in culture dishes. A2EC lysates were immunoblotted for p53, PAI-1, Cl./total caspase-3 and β-actin. WT mice exposed to IL-17A (FIG. 48D) and PTS (FIG. 46A) induce p53 acetylation and Cav1 expression, while inhibiting Sirt1 in A2ECs.
FIGS. 58A-58B show a 7-amino acid fragment of CSP, CSP7 Inhibits IL-17A-induced A2EC apoptosis. (A) Fragments of CSP were synthesized as shown. (B) A2ECs were treated with CSP or its fragments, or CP, 2 h after exposure of cells to IL-17A. A2EC lysates were immunoblotted for acetylated/total p53 and active/total caspase-3 24 h after IL-17A exposure. β-actin levels were evaluated to assess equal loading.
Increased p53 and apoptosis in A2ECs of mice exposed to PTS or IL-17A provided evidence that PTS acts by increasing IL-17A. To confirm that increased IL-17A contributes to the induction of p53 and PAI-1 expression, and apoptosis in A2ECs during PTS-induced lung injury, IL-17A-deficient mice were exposed to 20 weeks of PTS and control mice were kept in ambient air. A2ECs were tested for p53^AC, p53 and Sirt1 expression, and apoptosis. The responses were compared with changes in A2ECs isolated from WT mice exposed to 20 weeks of PTS or AIR. There was marked induction of p53^AC and p53 levels, and apoptosis with parallel suppression of Sirt1 expression in WT mice exposed to 20 weeks of PTS. […] To confirm mitigation of PTS induced lung injury by CSP or CSP7 involves suppression of IL-17A-induced p53, PAI-1 and apoptosis, A2ECs isolated from WT mice were next treated with IL-17A (100 ng/ml) with or without CSP, CSP7 or CP. Control cells were treated with vehicle (PBS) alone. The A2EC lysates were tested for p53 and p53-mediated downstream induction of PAI-1, and apoptosis. […] Further, induction of miR-34a increased p53 and apoptosis in A2ECs without exposure to tobacco smoke, while inhibition of miR-34a using miR-34a antisense (miR-34a-AS) reduced cigarette smoke induced p53 expression and apoptosis. Results of both in vitro and in vivo experiments support an intricate link between miR-34a, p53^AC, p53 and p53-mediated induction of PAI-1 expression, and A2EC apoptosis during PTS lung injury.

[4] = system: BAL cells; test: BAL cell counts in mice treated with IL-17A or Pre-miR-34a; assay type: in vivo, mouse

Row | Molecule | BLM-induced apoptosis of LECs and subsequent pulmonary fibrosis [1] | total and acetylated p53, apoptosis and Cav1 expression in A2ECs [2] | PAI-1 expression or apoptosis ([3]; A2ECs lacking p53 expression) | p53 and PAI-1 expression and apoptosis ([3]; mouse and human A2ECs, IL-17A alone) | percentage of PMN in total BAL cells [4] [%] | total BAL cells [4]
1 | NYHYLESSMTALYTLGH (listed as Homo sapiens) [PP-2, 17 residue peptide] | protected LECs from BLM-induced apoptosis in vitro and in vivo |  |  |  |  | 
2 | IL-17A: recombinant interleukin 17A used to induce A2C injury in vitro and in mice (protein, UniProt Q62386 26-158, looked up) Interleukin-17A: AAIIPQSSACPNTEAKDFLQNVKVNLKVFNSLGAKVSSRRPSDYLNRSTSPWTLHRNEDPDRYPSVIWEAQCRHQRCVNAEGKLDHHMNSVLIQQEILVLKREPESCPFTFRVEKMLVGVGCTCVASIVRQAA |  | marked increase in total and acetylated p53, apoptosis and induced Cav1 expression | failed to induce PAI-1 expression or apoptosis | induced expression of both p53 and PAI-1, and also apoptosis | 11.27 | two-fold increase
